From the DeepSol protein solubility set come the findings set out here.

This data set is described as follows: soluble on expression in E. coli; label from the status in PepcDB or PDB records.
In the case of “MGSDKIHHHHHHMTKLRIAVQGCCHGQLNQIYKEVSRIHAKTPIDLLIILGDFQSIRDGQDFKSIAIPPKYQRLGDFISYYNNEIEAPVPTIFIGGNHESMRHLMLLPHGGYVAKNIFYMGYSNVIWFKGIRIGSLSGIWKEWDFNKQRPDWNDLENNNWKANIRNLYHVRISDIAPLFMIKHRIDIMLSHDWPNGVVYHGDTKHLLKLKPFFEQDIKEGKLGSPVTWQLLRDLRPQWWLSAHLHVRFMASIKHNKRSHEPPNKSTSKTKKNNNEIDLDLSSDEDERSGIMNCQEENEYDSKYGETRFLALDKCLPRRRWLEILEIEPDTSHASWKDENHRMFWDPEFINNLVICQKNKNLLSNKPFNSVNWIELSQSNREEGRDIDWENYAIPAYTLDIQKDEVRQTKAFISKFMT”, the “soluble on expression in E. coli” value is “not soluble”. Turning to “MGHHHHHHSHGATLIRDRLKTEPFEENSFLEQFMIEKLPEACSIGDGKPFVMNLQDLYMAVTTQEVQVGQKHQGAGDPHTSNSASLQGIDSQCVNQPEQLVSSAPTLSAPEKESTALCRDLSCQRSRGRSQGVSSVNLLWPQLLRMDLENSFQASP”, the “soluble on expression in E. coli” value is “not soluble”. With “MGSDKIHHHHHHMTKIESLGSVKRKAVNISPEDLIKTEFLQPGNNFPLVIKPNVKGVDLQNWAKNNREFLKAELLKYGAILFRDFKVKSIEEFEQIIAAICGEAMEYRYRASPRTQVGGRIYTSTDYPAEQSIFPHNEHAYSPTFPLKIFFFCMSPAAQGGETPIGSCRKVFERIHPDIRDRFIQKKVMYMRNFGDGFGLPWQTVFQTTDKTKVEEYCKINGIEVEWKADNRLRTRQVGPVVLKHPQTGEMVWFNHATFFHVSTLESTIRDSLLTNLPEEDLPTNTYYGDGSAIEPSVLAELRAAYQQEMVTFSWEKGHVLMLDNMLSIHARQPFVPPRKILVGMAEAHTPIPLG”, the “soluble on expression in E. coli” value is “not soluble”. The same measure for “MDIPQDSYDLVVVGGGTSGVFAAISAARRGLRVALVEASGMLGGTLTQVTLGGICGAWTGTAHTQVVHGLFDEFVHAMRKAQACDGLYSYGHVTALPYEPVKVRYLLDQLLPPNVTAFFHSRLFAVDMEGERIARVHLAGVEGPFSLAARAYVDATGNASLVGLCATPLRRGENGTVQAASSMFRVIGADVDPRVRDVRTEIRLAIEKHNASGQAEAFKRSAVAVYVHPDQRLLHFNATRVYFESTADDALAAALDMSRVETEARKESFRLVELLKREVDGFANIEIVDLGSSVGVRDSRNIVNDHPLTEAMVRDGDKPANSVAYSAWPIEFHGSNTQTHWEPLEGDRYYGIPYESCLPQGIQNALVIGRAISSTPLAQASCRVTAPCIQMGESAGIAAHELVASSSRTAFSELASMKFILEHHHHHH”: “soluble”; for “MRFTISAAKPEDCKDIERMIMELAVYENMPDQVKISHKELERDGFGPNPFYHCLVAEVPEEHKSKDGNTTVGYVIFFYTYSTWKGRTVYMEDLYVMPEFRGNGIGKALLGAVAKEAKDQLCSRLQFSVLDWNKPSLDFYMAKGAEDLTAKEGWHFLRFHGMALDNLAQEAP”: “not soluble”. For the sequence “MRKTKTEALKTKEHLMLAALETFYRKGIARTSLNEIAQAAGVTRGALYWHFKNKEDLFDALFQRICDDIENCIAQDAEDAEGGSWAVFRHTLLHFFERLQSNDIYYKFHNILFLKCEHTEQNAAVIAIARKHQAIWREKITAVLTEAVENQDLADDLDKETAVIFIKSTLDGLIWRWFSSCERFDLGKTAPRIIGIMMDNLENHPDLRRK”, the “soluble on expression in E. coli” value is “soluble”. With “MSLADPNESTFARIRRTKKMRIGAVGGGAPYYMKDLASGQWKGFYVDIAKALADDMEAELEITETTWGNSVLDLQSNKIDIFFGLNPTPKRALVVDFSVPVFNNAFGILCKKDFKPKTWAELNSPDVKIAVDQGSSHDQVVSRLIPKAQISRLKTADDATAALQTGRVDAQCLITMLSLTVLKKNPSLGQFVLPTPIFATTSNAGFRRETDKTWRDYVNTWIDFNKGLGFIRNAIITNMELVGVTEADIPPGVSLEGHHHHHH”, the “soluble on expression in E. coli” value was “soluble”. With “MKPKPLKCITSHHYIIKFYDKSNLRTSLYLLIFKEHKDYREQMKVYIIDYHKDDPKRCTGKKLVKLKIAEFTRVGKGVVLDPFAQITLSNKDKDIVRRIGITIVDTSWNNTSQSEFKNIRGEHRRIPILFAGNPIHYGIAYKLSSIEALIATLYIVDEVEEAIKLSNVVKWGHTFIELNKELLEAYKNKTEEDIKKIEREIIEKILEKLEHHHHHH”, the “soluble on expression in E. coli” value is “not soluble”. Turning to “MASKRIIRMSDLLHTTPVFNRGYRFQWEQAQQSYVILYPEGLVRLNESATLILKQIDGKLTVHDIIQNLSAQFPDATGLDQDIVEFLKQAESRQWICLQ”, the “soluble on expression in E. coli” value was “not soluble”. The same measure for “KKKKKKDPNEPQKPVSAYALFFRDTQAAIKGQNPNATFGEVSKIVASMWDGLGEEQKQVYKKKTEAAKKEYLKQLAAYRASLVSKSYTD”: “soluble”. With “MGSDKIHHHHHHMHLSINLLPILSQHQVSFNTDIYCLEKFMFQIDTLIAAKIVDRTMKIIGHNINVMNAQAVILGSGDIDRIGTVHEGALLAISQNRNVEISQAIASNLHGVKPGLNLPLHYHGQVVGVIGITGEPDTLSHYGELLKMTAEMIVEQANLQEQLQWQNRQTEEFISQLIHANEQDLPSLQQWALQLGIDLSVPRVAAIIELDSNNPLYQQDNQALKQVLYLLQNPVRDNLIAMTSLTQLVILKPAFLDGKQFDPELENQRINKLLKRLPANMQLSLHISLGHYFGGELGISYSYRTAKETLDIGKKLHPTKTKYLYQDYSLQVLLSGLRHHWRGNALAGPYLKLIEVDNNQQLQKTLAAYLDHMGDIQACANSLFIHRNTLRYRLDKIQTITNIDLRSFNGLLSLYLGQLIHQPST”, the “soluble on expression in E. coli” value is on record as “not soluble”. Take “MGSSHHHHHHSSGLVPRGSHMRLCHPCPWEWTFFQGNCYFMSNSQRNWHDSITACKEVGAQLVVIKSAEEQNFLQLQSSRSNRFTWMGLSDLNQEGTWQWVDGSPLLPSFKQYWNRGEPNNVGEEDCAEFSGNGWNDDKCNLAKFWICKKSAASCSRDEEQFLSPAPATPNPPPA”: the “soluble on expression in E. coli” value is reported as “soluble”. In the case of “DDIHLIATSDVLYFKAEEKYVSVYAQQGKGEVQEYLIRTSLKELIGQLNPEQFWQVHRSSVVQVSKISKVNKDFAGRMFVYVGETKLPVSRASQSLFKGM”, the “soluble on expression in E. coli” value is recorded as “not soluble”. Take “MLKADYIPYTLKFKEPAGTSRGVLHTKQTYFVRVYDDTFPSRAGYGEAALFRGLSAEEGADYEERLAEVCNGVCGFTPDAWQAYPSLCFGMETALADFEGGGLLFPSAFTSGEAGIPINGLI”: the “soluble on expression in E. coli” value was “not soluble”. Turning to “MAYRNIKIVKGNGGFGGPLIIAPTDEKHKFIYITGGGEKPEIVDKIVELTGMEAVNGFKTSIPDEEIALAIVDCGGTLRCGIYPKKGIPTINIVATGKSGPLAQYITEDIYVSAVGMEQITSIEESAGSIETKEAKAETAQSQTGTGTYDTSKKITEQRAQQSVIARIGMGAGKVVAVFNQAARDAIQ”, the “soluble on expression in E. coli” value was “not soluble”. Consider “MGSDKIHHHHHHMLKTKTALTLSDKNYYSTEADWHYMSVSQYKNFNECEAATIARLKKIWLPCSDPKALLVGNYVHSYFESSKIHDLFKKENKDKMFSSRKPYGLLKDFQIAEQMIQRLKEEPAFMNLYKGEKEVIVTGQIENVNWKGKIDCLNLEDGYFVDIKTTKDIHERKWNDSYAERCTFIENYGYVLQMAVYKELLSQKYNREFVPIIAAVSKQTPSEVKLITLDEDKMHFEMIQLKENIEHIIKVKNGEEKPTLCGRCEYCRGQQRITHFTNMNDL”, for which the “soluble on expression in E. coli” value was “not soluble”. In the case of “SNAMTGTLLSFGHGYTARVLSRALAPQGWRIIGTSRNPDQMEAIRASGAEPLLWPGEEPSLDGVTHLLISTAPDSGGDPVLAALGDQIAARAAQFRWVGYLSTTAVYGDHDGAWVDETTPLTPTAARGRWRVMAEQQWQAVPNLPLHVFRLAGIYGPGRGPFSKLGKGGIRRIIKPGQVFSRIHVEDIAQVLAASMARPDPGAVYNVCDDEPVPPQDVIAYAAELQGLPLPPAVDFDKADLTPMARSFYSENKRVRNDRIKEELGVRLKYPNYRVGLEALQADAET”, the “soluble on expression in E. coli” value is recorded as “soluble”.

With “MYDKLLPMERIHIEVFEPFNGEAIEGKYSYVLLCRDYRSSFMWLLPLKSTKFKHLIPVVSSLFLTFARVPIFVTSSTLDKDDLYDICEEIASKYGLRIGLGLKSSARFHTGGILCIQYALNSYKKECLADWGKCLRYGPYRFNRRRNKRTKRK”, the “soluble on expression in E. coli” value is listed as “soluble”. For “MSDARLAELAAAVGLQLDWQDANGRPQRVDPEVQRGLLEALGYPAQSPQQIEQSLAALARLREDSANLGLLVGECGQPLEQALGPAGTPGELVYEDGTRIALRLDAEGRLPAQARSGYAQLSLEQREWAVAMAPPSCPSLASLAPGRSRRWGLAAQVYALRRPGDGGLGDSAALEDLLRSAARHGADALAISPLHALAEANGHAYSPYSPSSRLFFNVLHAAPATILGAAAVEQAIRRAGLAAEMARLESLELIDWTAAADLRMRLLRQLHRDFTERASPLRHDLAEFRREAGEALLHHCRFETLQAHLGAGPDWRRWPEPLRRPGEPAVAAFCADHAEEVDFRAFGQWLTQRCLQHAQRQAREAGMAIGLVADLAVGADGGGSQAWSRQEELLAEVNVGAPPDILNQSGQDWGVSAFNPEGLRRHGYRAFREMLRANLAWPGGLRIDHVMGLQRLWLIPRGQPPHAGAYLRYPQRELLRLLALEASRASALVIGEDLGTVPEGLREELARRQVLGTRVLLFERRGERFVPPAQWPADAMATTSTHDLPSLSGWWRGRDIHWRGRAGHRSAEECAADLELRAEERRALAASLEPPVDPDPAAEVPLDACIGYVGATPAPLVLLPLEDALGSLEQPNLPGPGDAHPNWRRRWPENAAQMLGTPQVDRRLRLLERSRRDAEEA”, the “soluble on expression in E. coli” value is given as “not soluble”. Consider “MPQVAGGRPRPPRGFRDFPPEVMILRKRLLSRLERVFESYGFDPLDTPAVEYWETLSGKYGEEAESRLIWRFQDPWSGRWYALRYDLTVPLARFVASNPGLPMPFKRYHIGKVWRHEEPQKGRYREFVQCDADIVGSPYPEADAEIVSLAVDSIDALGLPGFRVRVNDRRLLAGVFEEELGFDNPLPIYRAIDKLDKIGVEGVRRELERLGLPGSTVERIMEIISWRGRPGEVLESVRRGYGSNEKVREALDHLEEMLSLADDKRVELDMSLVRGLDYYTGPILEVVLDEPRIGSVAGGGRYDGLVGMFAGRDIPATGVSIGIERIIDAGLELGVYSLDVKTVAQVAVVVLDRRYYRYAWEAARILRRGGLNVRIDLSRASGQVQRRKASRLGIPVLAFVGAKEAEGGFLTLYSAAKGERVAVPLGEAVKAVERLLPS”, for which the “soluble on expression in E. coli” value is on record as “soluble”. On to “MKMTSRKLSDILKKRLQNDSWSFHFDREKDSLRIEDKNTGKGITLELPGIIAKWEQKKDDAIDEVVYYTEEALNAMKGQSQEMEGRESLIYPVIRSTSFPEKSSAGVPLVFDGHTAETRIYYALDLGNTYRLIDEKMLEKEGWTKERIRETASFNLRSLQTVVKEDEVAGNHFYFFRANDGYDASRVLNESILAEYEKNAEGTLAVSIPHQDVLIIADIRNNAGYDILGQMSMSFFANGTVPITALSFLYEDGKLEPIFILAKNRPKK”, for which the “soluble on expression in E. coli” value is given as “not soluble”. In the case of “SNILEKVVLKVLEDQQNIRLIRELLQTLYTSLCTLVQRVGKSVLVGNINMWVYRMETILHWQQQLNNIQITRPAFKGLTFTDLPLCLQLNIMQRLSDGRDLVSLGQAAPDLHVLSEDRLLWKKLCQYHFSERQIRKRLILSDKGQLDWKKMYFKLVRCYPRKEQYGDTLQLRKHCHILSWKGTDHPCTANNPESCSVSLSPQDFINLFKF”, the “soluble on expression in E. coli” value is “not soluble”.
